Consider 4 variants from FireProtDB (doi:10.1016/j.jmb.2005.06.006).

Several values for one entry are separate records, joined by “and”; a condition that tells them apart may be missing. Identical values can stand only once.

B1: Tryptophan synthase alpha chain, P0A877 (parent)
chain: MERYESLFAQLKERKEGAFVPFVTLGDPGIEQSLKIIDTLIEAGADALELGIPFSDPLADGPTIQNATLRAFAAGVTPAQCFEMLALIRQKHPTIPIGLLMYANLVFNKGIDEFYAQCEKVGVDSVLVADVPVEESAPFRQAALRHNVAPIFICPPNADDDLLRQIASYGRGYTYLLSRAGVTGAENRAALPLNHLVAKLKEYNAAPPLQGFGISAPDQVKAAIDAGAAGAISGSAIVKIIEQHINEPEKMLAALKVFVQPMKAATRS

Variants of B1 are the subject of the data set. Particulars: Escherichia coli (strain K12); pH 7.8; 25 °C; Urea; CD; Potassium phosphate 10 mM; transition: 3; structure 1WQ5; whole UniProt chain shown.

Take MERYESLFAQLKERKEGAFVPFVTLGDPGIEQSLKIIDTLIEAGADALELGIPFSDPLADGPTIQNATLRAFAAGVTPAQCFEMLALIRQKHPTIPIGALMYANLVFNKGIDEFYAQCEKVGVDSVLVADVPVEESAPFRQAALRHNVAPIFICPPNADDDLLRQIASYGRGYTYLLSRAGVTGAENRAALPLNHLVAKLKEYNAAPPLQGFGISAPDQVKAAIDAGAAGAISGSAIVKIIEQHINEPEKMLAALKVFVQPMKAATRS [L99A]: the “ddG of mutation (higher = less stable)” value is 1.69 kcal/mol and 2.38 kcal/mol; the denaturant m value is 2.39 kcal/mol/M and 0.94 kcal/mol/M; the unfolding free energy was 4.44 kcal/mol and 2.34 kcal/mol.

Take MERYESLFAQLKERKEGAFVPFVTLGDPGIEQSLKIIDTLIEAGADALELGIPFSDPLADGPTIQNATLRAFAAGVTPAQCFEMLALIRQKHPTIPIGLLMYANLVFNKGIDEFYAQCEKVGVDSVLVADVPVEESAPFRQAALRHNVAPIFICPPNADDDLLRQIASYGRGYTYALSRAGVTGAENRAALPLNHLVAKLKEYNAAPPLQGFGISAPDQVKAAIDAGAAGAISGSAIVKIIEQHINEPEKMLAALKVFVQPMKAATRS [L176A]: the “ddG of mutation (higher = less stable)” value is 2.88 kcal/mol and 1.13 kcal/mol; the denaturant m value is 2.16 kcal/mol/M and 1.01 kcal/mol/M; the unfolding free energy is 3.25 kcal/mol and 3.59 kcal/mol.

With MERYESLFAQLKERKEGAFVPFVTLGDPGIEQSLKIIDTLIEAGADALELGIPFSDPLADGPTIQNATLRAFAAGVTPAQCFEMLALIRQKHPTIPIGLLMYANLVFNKGIDEFYAQCEKVGVDSVAVADVPVEESAPFRQAALRHNVAPIFICPPNADDDLLRQIASYGRGYTYLLSRAGVTGAENRAALPLNHLVAKLKEYNAAPPLQGFGISAPDQVKAAIDAGAAGAISGSAIVKIIEQHINEPEKMLAALKVFVQPMKAATRS [L127A], the “ddG of mutation (higher = less stable)” value is 0.73 kcal/mol and 0.55 kcal/mol; the denaturant m value is 2.55 kcal/mol/M and 1.1 kcal/mol/M; the unfolding free energy was 5.4 kcal/mol and 4.17 kcal/mol.

With MERYESLFAQLKERKEGAFVPFVTLGDPGIEQSLKIADTLIEAGADALELGIPFSDPLADGPTIQNATLRAFAAGVTPAQCFEMLALIRQKHPTIPIGLLMYANLVFNKGIDEFYAQCEKVGVDSVLVADVPVEESAPFRQAALRHNVAPIFICPPNADDDLLRQIASYGRGYTYLLSRAGVTGAENRAALPLNHLVAKLKEYNAAPPLQGFGISAPDQVKAAIDAGAAGAISGSAIVKIIEQHINEPEKMLAALKVFVQPMKAATRS [I37A], the “ddG of mutation (higher = less stable)” value was 1.41 kcal/mol and 3.01 kcal/mol; the unfolding free energy is 4.72 kcal/mol and 1.71 kcal/mol.
